What was measured:
[1] = molecular target: Sindbis virus strain TR339 (virions; also structural proteins on infected Vero cells) (Sindbis virus); test: cell-based or functional assay
[2] = molecular target: Sindbis virus strain TR339 (virions; also structural proteins on infected Vero cells) (Sindbis virus)
[3] = molecular target: Mayaro virus (MAYV) structural proteins on infected cells (Mayaro virus); test: flow cytometry, surface staining of MAYV-infected Vero cells with serial dilutions, % binding to infected cells

Du-D1-Mo-D2 MXRA8-Fc (chimeric duck D1 - mouse D2 MXRA8, duck stalk) (from UniProt Q9DBV4 23-65; Q9DBV4 195-293) (Fc fusion)
neutralization of SINV TR339 infection, EC50 against that of duck MXRA8-Fc [1]: 3 fold | neutralisation of SINV-GFP infection; IC50 (read off the curve) [2]: 0.3 µg/mL | EC50 (read off the curve) [3]: 0.04 µg/mL
